{"source": "patent US20230250168A1", "about": "(MABWELL SHANGHAI BIOSCIENCE, published 2023)", "binders": {"B1": {"name": "16k15 (16K15-hz22) scfv, as CAR on T cells (scFv, not shown: small tags and cut ends)", "scFv": "EVQLVESGGGLVQPGGSLRLSCAGSGITLSTYAMSWVRQAPGKGLEWVSSIISGGITYYLDSVKGRFTISRDNAKNTLYLQMSSLRAEDTAVYYCARKYHGNALDYWGQGTLVTVSSGSTSGGGSGGGSGGGGSSDIVMTQSPDSLAVSLGERATINCKSSQSLLSSGNQRNYLTWYQQKPGQPPKKLIYWASTRESGVPDRFSGSGSGTDFTLTISSLQAEDLAVYYCQNNYFYPLTFGQGTKLEIK"}, "B2": {"name": "52E22 (52E22-hz12) scfv, as CAR on T cells (scFv, not shown: small tags and cut ends)", "scFv": "QIQLVQSGSELKKPGASVKVSCKASGYTLTNYGMNWVRQAPGQGLEWMGWIRPNTGEPTYAEDFKGRFVFSLDTSVATAYLQITSLKAEDTAVYYCARLYRGNTLDNWGQGTLVTVSSGSTSGGGSGGGSGGGGSSDIVMTQSPDSLAVSLGERATINCKSSQNLLSSGNQRNYLTWYQQKPGQPPKLLIYWASTRESGVPDRFSGSGSGTDFTLTISSLQAEDLAVYYCQQGYSFPFTFGQGTKLEIK"}, "B3": {"name": "8K13 (8K13-hz24) scfv, as CAR on T cells (scFv, not shown: small tags and cut ends)", "scFv": "QVQLVQSGAEVKKPGSSVKVSCKASGYAFSNYWMNWVRQAPGQGLEWMGQIYPGSGDTKYSGKFQSRVTITADKSTNTAYMELSSLRSEDTAVYYCARFYYGNVMDYWGQGTLVTVSSGSTSGGGSGGGSGGGGSSDIVLTQSPDSLAVSLGERATINCKSSQTLLSGGNQKNYLTWYQQKPGQPPKLLIYWASTRESGVPDRFSGSGSGTDFTLTISSLQAEDLAVYYCQQGYSYPLTFGQGTKLEIK"}, "B4": {"name": "16K15-hz22 (antibody, human IgG1, V domains shown)", "VH": "EVQLVESGGGLVQPGGSLRLSCAGSGITLSTYAMSWVRQAPGKGLEWVSSIISGGITYYLDSVKGRFTISRDNAKNTLYLQMSSLRAEDTAVYYCARKYHGNALDYWGQGTLVTVSS", "VL": "DIVMTQSPDSLAVSLGERATINCKSSQSLLSSGNQRNYLTWYQQKPGQPPKKLIYWASTRESGVPDRFSGSGSGTDFTLTISSLQAEDLAVYYCQNNYFYPLTFGQGTKLEIK", "notes": "Humanized; also called 16K15-hz22 IgG; 16K15-22 IgG"}}, "key": {"[1]": {"target": "human CLDN18.2 expressed on cell surfaces (human) (UniProt P56856)", "assay": "cell-based or functional assay"}, "[2]": {"target": "human CLDN18.1 expressed on cell surfaces (human) (UniProt P56856)", "assay": "cell-based or functional assay"}, "[3]": {"target": "T1, antigen human CLDN18.2, His-tagged (human, UniProt P56856-2 1-261, limits assumed)", "T1 construct": "Recombinant antigen used in the Fortebio assay (His-tagged, captured on NTA probe); also called His-tagged antigen; not shown: His tag", "assay": "BLI (Fortebio), His-tagged antigen on NTA probe, 100 nM antibody, 1:1 fit", "protocol": "(§1) The binding kinetic parameters of the chimeric antibodies and the humanized antibodies thereof to the antigen human CLDN18.2 were analyzed by a Fortebio (BLITZ pro1.1.0.28) instrument. Before performing the assay, an NTA bioprobe was soaked in PBS for 10 min, and the probe was then placed in PBS containing 100 nM antigen for 300 s to capture the His-tagged antigen. The probe was further subjected to a binding reaction with 100 nM antibody for a binding time of 400 s, and the probe was then transferred to PBS and subjected to a dissociation reaction for 600 s. When the assay was finished, data from which the response value of a blank control had been deducted were fitted to a 1:1 Langmuir binding model using software, and then the kinetic constants for antigen-antibody binding were calculated."}, "[4]": {"target": "T1, antigen human CLDN18.2, His-tagged", "assay": "BLI (Fortebio), His-tagged antigen on NTA probe; ratio to 16K15-xiIgG", "protocol": "as §1"}, "[5]": {"target": "T1, antigen human CLDN18.2, His-tagged", "assay": "SPR (BIAcore), antibody captured by anti-human Fc, antigen as analyte", "protocol": "Referring to the instructions provided in the Human Antibody Capture Kit (cat No. BR-1008-39, Lot 10261753) from GE Healthcare, the analytical channel and the control sample channel on a CM5 sensor chip were first saturated and coupled with the maximum amount of anti-human Fc antibody, then buffers containing anti-human CLDN18.2 chimeric antibodies, humanized antibodies or a control antibody IMAB362 at 7.5 μg/ml were allowed to flow through the analytical channel and uniformly distribute. Finally, antigen samples diluted in gradient (the initial concentration was 20 nM and diluted by 1:3 to get 8 concentrations, and the concentration 0.741 nM was set to be repeated) were allowed to flow through both the analytical channel and the sample channel, and the photoreactions upon the binding of antibody to antigen were measured. Subsequently, the association constant Kon and dissociation constant Koff and affinity constant KD of each antibody were finally obtained by instrument software fitting analysis."}, "[6]": {"target": "T2, human CLDN18.2 expressed on cell surfaces (human, UniProt P56856-2 1-261)", "assay": "cell-based or functional assay"}, "[7]": {"target": "T2, human CLDN18.2 expressed on cell …", "assay": "cell-based or functional assay", "remark": "listed apart in the source"}}}
{"binder": "B1", "values": [{"measurement": "Human IFNγ detected in the supernatants of the culture systems (CAR-T cells with CHO-claduin18.2)", "setting": "[1]", "value": 79200}, {"measurement": "Human IFNγ detected in the supernatants of the culture systems (CAR-T cells with CHO-claduin18.1)", "setting": "[2]", "value": 60300}]}
{"binder": "B2", "values": [{"measurement": "Human IFNγ detected in the supernatants of the culture systems (CAR-T cells with CHO-claduin18.2)", "setting": "[1]", "value": 78900}, {"measurement": "Human IFNγ detected in the supernatants of the culture systems (CAR-T cells with CHO-claduin18.1)", "setting": "[2]", "value": 4540}]}
{"binder": "B3", "values": [{"measurement": "Human IFNγ detected in the supernatants of the culture systems (CAR-T cells with CHO-claduin18.2)", "setting": "[1]", "value": 75500}, {"measurement": "Human IFNγ detected in the supernatants of the culture systems (CAR-T cells with CHO-claduin18.1)", "setting": "[2]", "value": 4670}]}
{"binder": "B4", "values": [{"measurement": "Kd", "setting": "[3]", "value": 1.1, "unit": "nM"}, {"measurement": "Response", "setting": "[3]", "value": 0.266}, {"measurement": "koff", "setting": "[3]", "value": 0.000286, "unit": "s⁻¹"}, {"measurement": "kon", "setting": "[3]", "value": 259000, "unit": "M⁻¹ s⁻¹"}, {"measurement": "Koff/Koff(Xi-IgG)", "setting": "[4]", "value": 1.86}, {"measurement": "Kd", "setting": "[5]", "value": 9.85, "unit": "nM"}, {"measurement": "koff", "setting": "[5]", "value": 0.000563, "unit": "s⁻¹"}, {"measurement": "kon", "setting": "[5]", "value": 57100, "unit": "M⁻¹ s⁻¹"}, {"measurement": "CDC EC50, BxPC3 cells stably expressing human CLDN18.2 (CCK-8)", "setting": "[6]", "value": 12.2, "unit": "nM"}, {"measurement": "CDC EC50, CHOK1 cells stably expressing human CLDN18.2 (CCK-8)", "setting": "[6]", "value": 5.2, "unit": "nM"}, {"measurement": "CDC EC50, NCI-N87 cells stably expressing human CLDN18.2 (CCK-8)", "setting": "[6]", "value": 17.4, "unit": "nM"}, {"measurement": "ADCC reporter EC50 (Jurkat NFAT-luciferase effector cells), BxPC3 target cells", "setting": "[7]", "value": 0.176, "unit": "nM"}, {"measurement": "ADCC reporter EC50 (Jurkat NFAT-luciferase effector cells), CHOK1 target cells", "setting": "[7]", "value": 0.712, "unit": "nM"}, {"measurement": "ADCC reporter EC50 (Jurkat NFAT-luciferase effector cells), NCI-N87 target cells", "setting": "[7]", "value": 0.0677, "unit": "nM"}]}
